According to patent publication US20230312755A1 (ANGITIA, published 2023):
Residue numbers refer to the chain shown, from its start. Ends that are not written are not given here.

Legend:
human DKK1 [1] = biological target: T1, human DKK1 (human, UniProt O94907 32-266); assay: BLI (Gator), antibody on anti-hFc biosensor, antigen as analyte; koff at LOD, KD estimated
T1 construct: Analyte in BLI and the protein added in the reporter assay; also called hDKK1; Dickkopf-1
T1 sequence (looked up): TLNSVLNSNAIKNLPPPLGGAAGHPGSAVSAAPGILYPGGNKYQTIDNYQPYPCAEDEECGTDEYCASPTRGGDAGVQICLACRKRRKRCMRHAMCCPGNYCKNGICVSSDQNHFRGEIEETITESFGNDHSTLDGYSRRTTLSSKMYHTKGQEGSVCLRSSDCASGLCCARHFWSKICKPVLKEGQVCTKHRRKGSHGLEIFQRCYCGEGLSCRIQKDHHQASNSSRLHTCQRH
Experimental: (§1) Binding kinetics and affinities of anti-Sclerostin×anti-DKK1 and anti-Sclerostin×anti-RANKL bispecific antibodies were measured with Gator (Probe Life) bio-layer interferometry (BLI). Antibodies were immobilized on an anti-hFc biosensor, using a 5 μg/ml solution. Serial dilutions of sclerostin (from 1 μg/ml), DKK1 (from 2 μg/ml), or RANKL (from 4 μg/ml) by two folds in kinetics buffer (PBS, pH 7.4, 0.05% Tween-20, 0.2% BSA) were used as the analytes. Affinity (KD) and kinetic parameters (Kₒₙ and Koff) were calculated from a global fit (1:1) of the data using the Gator software.

human Sclerostin [2] = biological target: T2, human Sclerostin (human, UniProt Q9BQB4 24-213); assay: as above
T2 construct: Analyte of the BLI assays and the protein added in the reporter assays; also called hSclerostin; SOST
T2 sequence: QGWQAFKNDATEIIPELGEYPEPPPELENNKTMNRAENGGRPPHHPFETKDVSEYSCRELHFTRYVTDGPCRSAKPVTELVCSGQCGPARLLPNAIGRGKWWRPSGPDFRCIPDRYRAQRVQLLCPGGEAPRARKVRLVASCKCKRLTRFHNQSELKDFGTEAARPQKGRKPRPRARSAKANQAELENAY
Experimental: as §1

human DKK1 [3] = biological target: T1, human DKK1; assay: BLI (Gator), antibody on anti-hFc biosensor, antigen as analyte, 1:1 global fit
Experimental: as §1

human Sclerostin [4] = biological target: T2, human Sclerostin; assay: as above
Experimental: as §1

human DKK1 [5] = biological target: T1, human DKK1; assay: cell-based or functional assay
human Sclerostin [6] = biological target: T2, human Sclerostin; assay: cell-based or functional assay
Pep1 = biological target: T3, Pep1 (human, biotinylated (NHS-Biotin Reagents)); assay: BLI (Gator), biotinylated peptide on streptavidin biosensor, 93B1B7 5 µg/ml as analyte
T3 construct: Chemically synthesized peptide of the second loop of human Sclerostin, biotinylated and immobilized on a streptavidin biosensor; also called hScl 110-133
T3 peptide: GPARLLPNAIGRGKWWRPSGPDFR
Experimental: (§2) The peptides were biotinylated (NHS-Biotin Reagents, Thermo, #21343) and immobilized on Streptavidin biosensor, using a 0.5 μg/ml solution.

pep6 = biological target: T4, pep6 (human, also: biotinylated (NHS-biotin), site not given here); assay: as above
T4 construct: Chemically synthesized peptide of the second loop of human Sclerostin, biotinylated and immobilized on a streptavidin biosensor
T4 peptide: IGRGKWWRPSGP
Experimental: as §2

pep5 = biological target: T5, pep5 (human, also: biotinylated (NHS-biotin), site not given here); assay: as above
T5 construct: Chemically synthesized peptide of the second loop of human Sclerostin, biotinylated and immobilized on a streptavidin biosensor
T5 peptide: PNAIGRGKWWR
Experimental: as §2

[7] = biological target: T6, cynomolgus monkey Sclerostin (cynomolgus monkey, UniProt Q9BG78 24-213 (Chlorocebus aethiops entry)); assay: BLI (Gator), antibody on anti-hFc biosensor, Sclerostin as analyte, 1:1 global fit
T6 chain: T2 sequence with E26D, P70Q, E129A, T161P, S178G
Experimental: (§3) The binding affinity of humanized anti-Sclerostin antibodies to human and cynomolgus monkey Sclerostin were determined with bio-layer interferometry using a Gator instrument (Probe Life). Antibodies were immobilized on an anti-hFc biosensor, using a […]. Serial dilutions of human Sclerostin and cynomolgus monkey Sclerostin from 4 μg/ml by two folds in kinetics buffer (PBS, pH 7.4, 0.05% Tween-20, 0.2% BSA, 10 μM biotin) were used as the analytes. Affinity (KD) and kinetic parameters (Kₒₙ and Koff) were calculated from a global fit (1:1) of the data using the Gator software.

human Sclerostin [8] = biological target: T2, human Sclerostin; assay: as above
Experimental: as §3

human Sclerostin [9] = biological target: T2, human Sclerostin; assay: cell-based or functional assay; remark: listed apart in the source
Pep2 = biological target: T7, Pep2 (biotinylated (NHS-biotin), site not given); assay: BLI (Gator), biotinylated peptide on streptavidin biosensor, 93B1B7 as analyte
T7 construct: also called Pep2 mSOST
T7 peptide: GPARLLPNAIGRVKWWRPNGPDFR
Experimental: as §2

Pep8 = biological target: T8, Pep8 (also: biotinylated (NHS-biotin), site not given here); assay: as above
T8 construct: also called Pep8 mSOST
T8 peptide: PNAIGRVKWWR
Experimental: as §2

Pep7 = biological target: T9, Pep7 (also: biotinylated (NHS-biotin), site not given here); assay: as above
T9 construct: also called Pep7 hSOST
T9 peptide: KWWRPSGPDFR
Experimental: as §2

Pep4 = biological target: T10, Pep4 (also: biotinylated (NHS-biotin), site not given here); assay: as above
T10 construct: also called Pep4 hSOST
T10 peptide: RLLPNAIGRGK
Experimental: as §2

Pep10 = biological target: T11, Pep10 (also: biotinylated (NHS-biotin), site not given here); assay: as above
T11 construct: also called Pep 10 mSOST
T11 peptide: KWWRPNGPDFR
Experimental: as §2

Pep3 = biological target: T12, Pep3 (also: biotinylated (NHS-biotin), site not given here); assay: as above
T12 construct: also called Pep3 h/mSOST
T12 peptide: GPARLLPNAIGR
Experimental: as §2

Pep9 = biological target: T13, Pep9 (also: biotinylated (NHS-biotin), site not given here); assay: as above
T13 construct: also called Pep9 mSOST
T13 peptide: IGRVKWWRPNGP
Experimental: as §2

[10] = biological target: T14, His-tagged human Sclerostin (NCBI reference No. NP_079513.1) (human, UniProt Q9BQB4 24-213); assay: ELISA, plate coated with His-tagged human Sclerostin
T14 construct: also called mouse His-tagged human Sclerostin; not shown: His tag
T14 sequence: T2 sequence
Experimental: The ability of antibodies to specifically bind Sclerostin was determined by an ELISA capture assay. Plates were coated, in a 96-well half-area, with 100 μl/well of mouse His-tagged human Sclerostin (NCBI reference No. is NP_079513.1) [[…]], in coating buffer (PBS, pH 7.4), and incubated at RT for one hour, or 4° C. overnight. The plates were washed once with 100 μl/well of washing solution (PBS containing 0.2% Tween20, BIO-RAD). Plates were then incubated in blocking solution (PBS containing 1% BSA, 1% goat serum and 0.5% Tween20; 100 μl/well) for one hour at room temperature (RT). Anti-Sclerostin antibodies at various concentrations (1000, 333.3, 111.1, 37.0, 12.3, 4.1, 1.4, 0.5, 0.15, 0.05 ng/ml), a positive control antibody Romosozumab or non-Sclerostin related IgG (human or rat IgG, negative control), were then added to each well in 20 μl/well of blocking solution, and plates were incubated at RT for one hour. NeutrAvidin HRP (Pierce, Catalog #31001) diluted in blocking solution (1:50,000 dilution) was added at to each well ([…]), and the plates were incubated at RT for one hour prior to three washes with […] of washing solution. SuperSignal ELISA Femto (ThermoFisher Scientific, Catalog #37074) working solution was added to the plates ([…]), and the signal was read using a luminometer at 425 nm.

human DKK1 [11] = biological target: T1, human DKK1; assay: BLI (Gator), hAb-2 on anti-hFc probe already holding hSclerostin, hDKK1 as second analyte
Experimental: The bsAb constructs (5 μg/ml) were captured to the anti-hFc HFC probe, then sequentially adding hSclerostin (2 μg/ml) and hDKK1 (2 μg/ml) in kinetics buffer (PBS, pH 7.4, 0.05% Tween-20, 0.2% BSA).

B1: BAP0061 (bispecific antibody, human IgG4 S228P, kappa)
heavy 1: EVQLVQSGAEVKKPGASVKVSCKASGYTFTDYEIHWVRQAPGKGLEWMGAIDPETGGTAYNQKFKGRVTMTTDTSTSTAYMELRSLRSDDTAVYYCYSYDYVTYWGQGTTVTVSSASTKGPSVFPLAPCSRSTSESTAALGCLVKDYFPEPVTVSWNSGALTSGVHTFPAVLQSSGLYSLSSVVTVPSSSLGTKTYTCNVDHKPSNTKVDKRVESKYGPPCPPCPAPEFLGGPSVFLFPPKPKDTLMISRTPEVTCVVVDVSQEDPEVQFNWYVDGVEVHNAKTKPREEQFNSTYRVVSVLTVLHQDWLNGKEYKCKVSNKGLPSSIEKTISKAKGQPREPQVYTLPPSQEEMTKNQVSLSCAVKGFYPSDIAVEWESNGQPENNYKTTPPVLDSDGSFFLVSRLTVDKSRWQEGNVFSCSVMHEALHNRFTQKSLSLSLGK
light 1: DIQMTQSPSSLSASVGDRVTITCRSSQSLLYSDGRTYLNWYQQKPGKSPKRLIYLVSKLDSGVPDRFSGSGSGTDFTLTISSLQPEDFATYYCWQGTHLPHTFGGGTKVEIKRTVAAPSVFIFPPSDEQLKSGTASVVCLLNNFYPREAKVQWKVDNALQSGNSQESVTEQDSKDSTYSLSSTLTLSKADYEKHKVYACEVTHQGLSSPVTKSFNRGEC
heavy 2: not shown
light 2: DIRMTQSPFSLSASVGDRVTITCLASEDIYSDLAWYQQKPAKAPKLFIYNANSLQNGVPSRFSGSGSGTDYTLTISSLQPEDFATYYCQQYNNYPPTFGGGTKVEIKRTVAAPSVFICPPSDEQLKSGTASVVCLLNNFYPREAKVQWKVDNALQSGNSQESVTEQDSKDSTYSLSSTLTLSKADYEKHKVYACEVTHQGLSSPVTKSFNRGES
notes: Asymmetric knob-into-hole full length antibody: first Fab (hAb-2) recognizes Sclerostin, second Fab (11H10) recognizes DKK1
B1 showed a Kd (human DKK1 [1]) of roughly 0.01 nM, a Kd (human Sclerostin [2]) of roughly 0.01 nM and a kon (human DKK1 [3]) of 330000 M⁻¹ s⁻¹. For the same binder, the kon (human Sclerostin [4]) was 2.62e+06 M⁻¹ s⁻¹, the “EC50, DKK1 neutralization activity in HEK293/TCF/LEF/Wnt1 reporter gene assay” value (human DKK1 [5]) was 41.4 nM and the “EC50, Sclerostin neutralization activity in HEK293/TCF/LEF/Wnt1 reporter gene assay” value (human Sclerostin [6]) was 63.8 nM.

B2: BAP0063 (bispecific antibody, human IgG4 S228P, kappa)
heavy 1: B1 heavy 1
light 1: B1 light 1
heavy 2: not shown
light 2: B1 light 2 with C118F, Q160C
notes: as for B1
B2 gave a Kd (human DKK1 [1]) of roughly 0.01 nM, a Kd (human Sclerostin [2]) of roughly 0.01 nM and a kon (human DKK1 [3]) of 129000 M⁻¹ s⁻¹. For the same binder, the kon (human Sclerostin [4]) was 2.59e+06 M⁻¹ s⁻¹, the “EC50, DKK1 neutralization activity in HEK293/TCF/LEF/Wnt1 reporter gene assay” value (human DKK1 [5]) was 44.7 nM and the “EC50, Sclerostin neutralization activity in HEK293/TCF/LEF/Wnt1 reporter gene assay” value (human Sclerostin [6]) was 65.4 nM.

B3: 93B1B7 (antibody, V domains shown)
VH: QAQLQQSGAELVRPGASVTLSCKASGYTFTDYEIHWMKQTPVHGLEWIGAIDPETGGTAYNQKFKGKAILTADRSSSTAYLELRSLTSEDSAVYYCYSYDYVTYWGQGTLVTVSA
VL: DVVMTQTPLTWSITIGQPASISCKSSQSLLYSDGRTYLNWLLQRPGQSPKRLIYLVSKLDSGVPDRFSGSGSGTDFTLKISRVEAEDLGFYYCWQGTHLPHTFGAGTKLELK
notes: Murine monoclonal antibody from a hybridoma; also called mAb 93B1B7; Antibody 93B1B7
B3: binds (Pep1); binds (pep6); binds (pep5). The Kd [7] was 0.018 nM, the koff [7] was 6.5e-05 s⁻¹ and the kon [7] was 2.2e+06 M⁻¹ s⁻¹. It also gave a Kd (human Sclerostin [8]) of 0.051 nM, a koff (human Sclerostin [8]) of 8.4e-05 s⁻¹ and a kon (human Sclerostin [8]) of 1e+06 M⁻¹ s⁻¹. The “EC50, Sclerostin-neutralisation activity in HEK293/TCF/LEF/Wnt1 cells (luciferase reporter)” value (human Sclerostin [9]) was 57.9 nM, the binding result (Pep2) was “no binding (tested: 5 µg/ml)” and the binding result (Pep8) was “no binding (tested: 5 µg/ml)”. B3: no binding (tested: 5 µg/ml) (Pep7); no binding (tested: 5 µg/ml) (Pep4); no binding (tested: 5 µg/ml) (Pep10). The binding result (Pep3) was “no binding (tested: 5 µg/ml)”, the binding result (Pep9) was “no binding (tested: 5 µg/ml)” and the EC50 [10] was 0.04 nM.

B4: hAb-2 (antibody, V domains shown)
VH: EVQLVQSGAEVKKPGASVKVSCKASGYTFTDYEIHWVRQAPGKGLEWMGAIDPETGGTAYNQKFKGRVTMTTDTSTSTAYMELRSLRSDDTAVYYCYSYDYVTYWGQGTTVTVSS
VL: DIQMTQSPSSLSASVGDRVTITCRSSQSLLYSDGRTYLNWYQQKPGKSPKRLIYLVSKLDSGVPDRFSGSGSGTDFTLTISSLQPEDFATYYCWQGTHLPHTFGGGTKVEIK
notes: Humanized 93B1B7; also called humanized anti-Sclerostin antibody hAb-2
Binder B4 has a Kd [7] of 0.055 nM, a koff [7] of 8.06e-05 s⁻¹ and a kon [7] of 1.54e+06 M⁻¹ s⁻¹. It also gave a Kd (human Sclerostin [8]) of 0.24 nM, a koff (human Sclerostin [8]) of 0.0002 s⁻¹ and a kon (human Sclerostin [8]) of 780000 M⁻¹ s⁻¹. For the same binder, the “EC50, Sclerostin-neutralisation activity in HEK293/TCF/LEF/Wnt1 cells (luciferase reporter)” value (human Sclerostin [9]) was 14.9 nM and the binding result (human DKK1 [11]) was “no binding (tested: 2 µg/ml)”.
